For two substances, stoichiometry N results are on record in publication PMC5024704.

Assay [1] has as its target SgcC FADH2-dependent monooxygenase (Streptomyces globisporus). In words: SEC. On the technique in general: SEC sorts molecules by how far they enter the pores of the column.
Assay [2] addresses SgcE6 flavin reductase (Streptomyces globisporus). In words: SEC.

For the substance “SgcC FADH2-dependent monooxygenase (enzyme)”, the stoichiometry N (usually the number of molecules, sites or subunits per partner or assembly) in assay [1] is 4.

With SgcE6 flavin reductase (enzyme), the stoichiometry N in assay [2] was 2.
